In one experiment the target is T1, 人GUCY2C-Fc蛋白 (human, UniProt P25092 24-430).
T1 construct: extracellular domain; not shown: human IgG1 Fc at the C-terminus
As to the kind of experiment: indirect ELISA, GUCY2C-Fc coated at 1 ug/mL, HRP anti-mouse IgG.

Experiment [1] deals with T2, 人GUCY2C on cells (人结肠癌细胞CW2; GUCY2C过表达肿瘤细胞CW2-GCC#1) (human, UniProt P25092 24-1073).
T2 construct: whole, on cells; the gene put into CW2-GCC#1 is only called GUCY2C
Nature of the experiment: flow cytometry on CW2 human colon cancer cells, PE anti-mouse secondary. A general note: Flow cytometry measures light scatter and fluorescence of single cells or particles in a stream.

Another experiment deals with T3, 人GUCY2C-His蛋白 (human, UniProt P25092 24-430).
T3 construct: extracellular domain
T3 sequence (P25092 other isoform, or with tags, fused parts or gaps): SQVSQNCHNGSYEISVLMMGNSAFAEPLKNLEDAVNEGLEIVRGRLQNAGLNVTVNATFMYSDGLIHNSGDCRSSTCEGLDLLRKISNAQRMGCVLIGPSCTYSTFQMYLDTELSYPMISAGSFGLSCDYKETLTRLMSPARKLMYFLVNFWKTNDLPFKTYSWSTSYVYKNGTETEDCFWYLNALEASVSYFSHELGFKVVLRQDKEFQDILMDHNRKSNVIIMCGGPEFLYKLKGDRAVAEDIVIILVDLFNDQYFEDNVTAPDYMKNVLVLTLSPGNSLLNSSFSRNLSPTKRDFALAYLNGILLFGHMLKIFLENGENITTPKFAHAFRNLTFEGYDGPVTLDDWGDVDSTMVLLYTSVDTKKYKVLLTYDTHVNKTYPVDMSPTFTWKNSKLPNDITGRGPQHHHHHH
As to the kind of experiment: ELISA, GUCY2C-His coated at 0.1 ug/mL, HRP anti-mouse secondary (Table 3). (In general: In an ELISA, binding on a coated surface is turned into a signal by an enzyme label.)

By EC50 is commonly meant the concentration that produces a half-maximal response. A low value points to a more potent agent.

T2 sequence (P25092 24-1073): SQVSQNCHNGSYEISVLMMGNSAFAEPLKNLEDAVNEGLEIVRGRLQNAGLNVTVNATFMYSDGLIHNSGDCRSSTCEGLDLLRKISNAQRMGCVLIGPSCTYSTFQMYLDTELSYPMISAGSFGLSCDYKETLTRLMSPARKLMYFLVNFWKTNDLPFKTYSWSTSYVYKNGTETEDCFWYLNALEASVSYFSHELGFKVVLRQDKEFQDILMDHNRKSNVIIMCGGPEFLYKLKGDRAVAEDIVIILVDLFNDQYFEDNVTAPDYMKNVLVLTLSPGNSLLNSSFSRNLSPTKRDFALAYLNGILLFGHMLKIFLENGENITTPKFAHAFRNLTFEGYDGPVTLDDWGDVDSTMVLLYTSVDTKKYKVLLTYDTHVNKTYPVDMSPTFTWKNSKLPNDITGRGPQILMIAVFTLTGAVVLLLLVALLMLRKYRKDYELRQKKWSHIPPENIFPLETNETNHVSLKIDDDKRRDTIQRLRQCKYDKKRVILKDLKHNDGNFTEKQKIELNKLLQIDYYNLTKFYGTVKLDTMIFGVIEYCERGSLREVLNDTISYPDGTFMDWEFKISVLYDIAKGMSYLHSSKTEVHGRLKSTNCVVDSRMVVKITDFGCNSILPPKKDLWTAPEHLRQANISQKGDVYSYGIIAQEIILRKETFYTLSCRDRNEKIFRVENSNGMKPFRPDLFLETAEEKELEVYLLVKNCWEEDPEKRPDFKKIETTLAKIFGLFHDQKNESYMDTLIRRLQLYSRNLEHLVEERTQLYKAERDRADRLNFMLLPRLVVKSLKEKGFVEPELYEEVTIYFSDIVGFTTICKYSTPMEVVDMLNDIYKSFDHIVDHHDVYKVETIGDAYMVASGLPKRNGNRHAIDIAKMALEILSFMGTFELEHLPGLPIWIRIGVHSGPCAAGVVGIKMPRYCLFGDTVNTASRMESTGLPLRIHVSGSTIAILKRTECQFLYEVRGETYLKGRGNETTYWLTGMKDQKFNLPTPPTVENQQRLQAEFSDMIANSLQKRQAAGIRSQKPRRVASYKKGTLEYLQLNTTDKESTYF
T1 sequence (P25092 24-430): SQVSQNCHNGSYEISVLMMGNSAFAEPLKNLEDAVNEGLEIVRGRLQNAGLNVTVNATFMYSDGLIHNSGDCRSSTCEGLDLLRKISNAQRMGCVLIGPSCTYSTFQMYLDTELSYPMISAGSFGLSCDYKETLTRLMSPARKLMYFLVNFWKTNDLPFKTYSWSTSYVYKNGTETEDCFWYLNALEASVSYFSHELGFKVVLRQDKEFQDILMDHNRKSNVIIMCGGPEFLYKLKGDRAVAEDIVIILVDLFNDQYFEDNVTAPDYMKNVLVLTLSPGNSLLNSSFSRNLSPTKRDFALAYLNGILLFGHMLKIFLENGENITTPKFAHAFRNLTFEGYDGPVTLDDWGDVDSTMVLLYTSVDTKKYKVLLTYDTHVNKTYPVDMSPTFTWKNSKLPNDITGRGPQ

B1: 55G7A7H2 (antibody, V domains shown)
VH: QVQLQQSGADLARPGASVKMSCKASGYTFTSYTMHWVKQRPGQGLEWIGYINPSSGYTNYNQKFQDKATLTADKSSSTAYMQLSSLTSEDSAVYYCARLGRIGVYWGQGTTLTVSS
VL: QIVLSQSPAILSAFPGEKVTLTCRASSSVSFIHWYQQKPGSSPKPWIYATSNLASGVPDRFSGSGSGTSFSFTISRVEAEDAATYYCQQWSSNPWTFGGGTKLEIK
As to B1, the EC50 in the experiment with 人GUCY2C-Fc蛋白 amounted to 0.0215 mg/L; in experiment [1], 6.27 mg/L; with 人GUCY2C-His蛋白, 0.12 nM.

The values above are taken from CN116284407A (SUNSHINE GUOJIAN PHARMACEUTICAL SHANGHAI CO LTD, dated 2023).
